Experimental data taken from US20200181239A1.
Blank lines part the entries; values can stand above or below the molecule they belong to.

What was measured:
canine PD-L1 (canine) = experiment: competition ELISA: biotinylated canine PD-L1 pre-incubated with the inhibitor, then bound to coated canine PD-1, streptavidin-HRP
papain = papain (UniProt P00784)
[1] = target: T1, human Stefin A (wild type human Cystatin A)
T1 chain: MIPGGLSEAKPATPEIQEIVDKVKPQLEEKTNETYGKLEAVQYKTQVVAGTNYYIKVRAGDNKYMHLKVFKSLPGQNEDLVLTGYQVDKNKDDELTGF

- IC50 (read off the curve) (canine PD-L1 (canine)): 20 nM
Molecule: canine PD-1 (receptor)

- IC50 (read off the curve) (papain): 1 nM
Molecule: human Stefin A (wild type human Cystatin A) (from UniProt P01040 1-98)

B1: papain (protein)
chain: IPEYVDWRQKGAVTPVKNQGSCGSCWAFSAVVTIEGIIKIRTGNLNEYSEQELLDCDRRSYGCNGGYPWSALQLVAQYGIHYRNTYPYEGVQRYCRSREKGPYAAKTDGVRQVQPYNEGALLYSIANQPVSVVLEAAGKDFQLYRGGIFVGPCGNKVDHAVAAVGYGPNYILIKNSWGTGWGENGYIRIKRGTGNSYGVCGLYTSSFYPVKN
- papain activity assay: fluorescence (excitation 380 nm, emission 460 nm) from the substrate N-Carbobenzyloxy-Phe-Arg-7-amido-4-methylcoumarin [1]: hSteA is a potent inhibitor of papain
